The values that follow come from the supplement of paper PMC9170038.

The data set has as its system MS2 coat protein. Nature of the data set: apparent KD of MS2 coat protein; designed switch direction (-1 OFF switch, 1 ON switch): 1; higher = weaker reporter binding. In outline: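 SNAP-549-labelled MS2 coat protein was titrated, doubling from 0.7 or 1.5 nM to 3 µM, over designed RNA switches transcribed on Illumina chips by stalled E. coli RNA polymerase. Runs were done without input, with 200 uM small-molecule ligand, or with an oligonucleotide input. Apparent KD is the per-design median over clusters of curve-fitted normalised fluorescence.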

Where [1] appears, read: input ligand: microRNA oligo, concentration not stated.
Setting [2] is: Eterna round: R95, input ligand: FMN 200 uM.
[3] abbreviates: Eterna round: R95, input ligand: microRNA oligo, concentration not stated.
Where [4] appears, read: Eterna round: R95, input ligand: none.

For “CAGCGCUGUCGAGAGGAUAUGCGGUGAUGGACAUGAGGAUCACCCAUGUUAGCGAUAGCAUUACGGUAGAAGGCUCUACAGCUGC [Soteed] (Eterna round: R96, puzzle: Same State 2)”, the “apparent KD of MS2 coat protein” value (input ligand: FMN 200 uM) is 18.7 nM, the “apparent KD of MS2 coat protein” value under setting [1] was 32.1 nM and the “apparent KD of MS2 coat protein” value (input ligand: none) was found to be 47.4 nM.

As to “AUAAAACAUGAGGAUCACCCAUGUCAAAAGACAUGAGGAUAUGUGCAAAUAAAAUAAGAAACAGAAGGCAUGAAAA [salish99_ss1_r3_103] (puzzle: Same State 1)”, the “apparent KD of MS2 coat protein” value reads like this: under setting [2], 98 nM; under setting [3], 105 nM; under setting [4], 222 nM.

On to “AUGCAGCCACCACAGGAUAUACGUGGAUCGACAUGAGGAUCACCCAUGUAUAUCCUAAUAAUUGCGUAGAAGGGUGGUCGGCUGG [Anatxeage] (puzzle: Same State 2)”, for which, under setting [3], the “apparent KD of MS2 coat protein” value was 362 nM.

For the sequence “GGUCCAGCCUGAGCUGGACAAAAGCAUGUACAUGAGGAUCACCCAUGUCAUGUACAGGCUUUUUGCUCGUCUUAAAA [JL mod - D87 - 7] (puzzle: Sensor for hsa-mir-208a)”, the “apparent KD of MS2 coat protein” value worked out at 622 nM under setting [2], 16.1 nM under setting [3] and 825 nM under setting [4].

Regarding “AAUUAAGAUCAAGGAUAUCACGUCGUUUAGACGUGAGAAGGUGAUCCAUACAUGAGGAUCACCCAUGUAUAACAUGAAUUAAUU [SSNG1/8-B3] (Eterna round: R96, puzzle: Same State NG 1)”, the “apparent KD of MS2 coat protein” value (input ligand: FMN 200 uM) came out at 180 nM, the “apparent KD of MS2 coat protein” value under setting [1] was 1160 nM and the “apparent KD of MS2 coat protein” value (input ligand: none) turned out to be 698 nM.

As to “GCUCGAAUCAGAACCAACAUGAGGAUCACCCAUGUGUGUUGGUAGGAUAUCGUUUCUAAGGGAAACGAGAAGGGCCGAACGAGC [SameState NG3 #7] (Eterna round: R96, puzzle: Same State NG 3)”, the “apparent KD of MS2 coat protein” value came to 46.9 nM (input ligand: FMN 200 uM), 49.4 nM under setting [1] and 89.1 nM (input ligand: none).

With “GGAAUAUGAUGUUACAUGAGGAUCACCCAUGUAGUGAUAACUAAGGAUAUCUGUUAAGAUAAUUAAGAGAAGGUAGGAUCAUAA [AK SSNG3-V2-8.2] (Eterna round: R96, puzzle: Same State NG 3)”, the “apparent KD of MS2 coat protein” value was determined as 34.7 nM (input ligand: FMN 200 uM), 37.5 nM under setting [1] and 42.4 nM (input ligand: none).

In the case of “AUAAGUUCGAUGCUCGUCUCUCCGUACAAACAUGAGGAUCACCCAUGUGAUCGGGAAGUAGCCCAAUCAGUAUGGCC [Oranlaen] (puzzle: Sensor for hsa-mir-208a)”, the “apparent KD of MS2 coat protein” value runs as follows: under setting [2], 26.6 nM; under setting [3], 30 nM; under setting [4], 31.3 nM.

Regarding “GUUACAUGAGGAUCACCCAUGUAUGUGUGGGAGUAAGUGUCUUAGGAUAUCUAUCAUUUAAUUCAAGAGAAGGAAGAUUGUUGU [JMF's solution 100] (Eterna round: R96, puzzle: Same State NG 3)”, the “apparent KD of MS2 coat protein” value (input ligand: FMN 200 uM) came to 126 nM, the “apparent KD of MS2 coat protein” value under setting [1] came to 96.1 nM and the “apparent KD of MS2 coat protein” value (input ligand: none) turned out to be 103 nM.

As to “UUGAAGAAUUAAGGAUAUUGAAUACAUAUGUUUAACAUGAGGAUCACCCAUGUGGGUUGCGGUAUCGAGAAGGUAAAUUAAAAG [Mat - Same State NG 2 - JL mod - D2] (Eterna round: R96, puzzle: Same State NG 2)”, the “apparent KD of MS2 coat protein” value by setting is: (input ligand: FMN 200 uM) 142 nM; under setting [1], 179 nM; (input ligand: none) 131 nM.

As to “GGUCCAUCAUGAGGAUAUGGCACCUUAUUGGUGCCAGAAGGCAUGUAAAUUAUAAUAAAUACAUGAGGAUCACCCAUGUGGACC [Eli NG1ss - 98] (Eterna round: R96, puzzle: Same State NG 1)”, the “apparent KD of MS2 coat protein” value was 1230 nM (input ligand: FMN 200 uM), 80.2 nM under setting [1] and 407 nM (input ligand: none).

In the case of “AGGUGGUGUGGAAAGGAUAUACGGUUGAGGACAUGAGGAUCACCCAUGUGGUAGAGGACGUAAGGGUAGAAGGUUCGGGAUUGGU [JR_SS@_Sub022] (puzzle: Same State 2)”, the “apparent KD of MS2 coat protein” value reads like this: under setting [2], 41.2 nM; under setting [3], 36.5 nM; under setting [4], 41.7 nM.

As to “UUGAAUAAUUAAGGAUAUCGAGUCAAGAUGUUAAACAUGAGGAUCACCCAUGUGGGUUGCGGUAUCGAGAAGGUAAAUAAUAAG [Mat - Same State NG 2 - JL mod - D56] (Eterna round: R96, puzzle: Same State NG 2)”, the “apparent KD of MS2 coat protein” value reads like this: (input ligand: FMN 200 uM) 38.6 nM; under setting [1], 28.8 nM; (input ligand: none) 36.5 nM.

Consider “UCUUGGUUUUUGCUCGUUUUUUGUGUUGAACAUGAGGAUCACCCAUGUAUUGUACGGUCCGGUUUAAUAAUGGUCCG [JMF 12] (puzzle: Sensor for hsa-mir-208a)”, for which the “apparent KD of MS2 coat protein” value worked out at 25 nM under setting [2], 14.7 nM under setting [3] and 26.3 nM under setting [4].

As to “AUAAGUUUGAUGCUCGUCUCUCCGUACAAACAUGAGGAUCACCCAUGUGGUCGGGUAGUAGCCCGGCCAGUAUGGCC [Ribiesreri] (puzzle: Sensor for hsa-mir-208a)”, the “apparent KD of MS2 coat protein” value under setting [2] is 40.3 nM, the “apparent KD of MS2 coat protein” value under setting [3] amounted to 20.3 nM and the “apparent KD of MS2 coat protein” value under setting [4] was found to be 46 nM.

As for “CUGAGCAGUCAAGGAUAUCACGUCGAUUAGACGUGAGAAGGUGAUUAAUACAUGAGGAUCACCCAUGUAAUACAUGAAGCUCAG [SSNG1/11-A2] (Eterna round: R96, puzzle: Same State NG 1)”, the “apparent KD of MS2 coat protein” value reads like this: (input ligand: FMN 200 uM) 13.8 nM; under setting [1], 38.4 nM; (input ligand: none) 41.9 nM.

Turning to “ACAUGAGACUUAGGAUAUGUUGUACCUACAUGUGACAUGAGGAUCACCCAUGUGGUAAGUAUGAGACAGAAGGAAGAGAUAUGU [Equivalence 29 - Jieux - Same State NG 2] (Eterna round: R96, puzzle: Same State NG 2)”, the “apparent KD of MS2 coat protein” value was found to be 7.53 nM (input ligand: FMN 200 uM), 26.3 nM under setting [1] and 54.7 nM (input ligand: none).

For “UUACCGCGGGUAGGAUAUGGUCACACUUCUAAAACAUGAGGAUCACCCAUGUCCGACACAUAAAGCCAGAAGGACCCGCGGCUC [Esbea] (Eterna round: R96, puzzle: Same State NG 2)”, the “apparent KD of MS2 coat protein” value reads like this: (input ligand: FMN 200 uM) 20.8 nM; under setting [1], 48.5 nM; (input ligand: none) 71.4 nM.

For the sequence “AAUAAAGUCAGUAAGGAUAUCCAAAUGGCGACAUGAGGAUCACCCAUGUAAGAAACCCGACAUCGGGAGAAGGUACAUGACGAUG [Enlaorle] (puzzle: Same State 2)”, the “apparent KD of MS2 coat protein” value was found to be 87.9 nM under setting [2], 124 nM under setting [3] and 127 nM under setting [4].

For the sequence “UUUUUGUUCCGAGGAUAUCCUUUUUUCUUACAUGAGGAUCACCCAUGUAAAGGGAUUGAGUUGUAGGAGAAGGCGGUUUUGUUU [JR_SSNG2_Sub061] (Eterna round: R96, puzzle: Same State NG 2)”, the “apparent KD of MS2 coat protein” value was 16.4 nM (input ligand: FMN 200 uM), 26.1 nM under setting [1] and 26.2 nM (input ligand: none).

Regarding “GUACUACAUGAGGAUCACCCAUGUUACCUUCACGGAGGAUAUAGGAAAUGAGGUGAGAUGCUAGAAGGCCGAGGAA [Candy Rainbow 4] (puzzle: Same State 1)”, the “apparent KD of MS2 coat protein” value was 102 nM under setting [2], 78.3 nM under setting [3] and 95.9 nM under setting [4].

For the sequence “CUUUUUAAUGCAGGAUAUGAUCAACAUGAGGAUCACCCAUGUGGCGUUGUGAGUAGGGAGAGUGAUCAGAAGGGCAUCUCCUCG [SS-NG2-LRO08] (Eterna round: R96, puzzle: Same State NG 2)”, the “apparent KD of MS2 coat protein” value came out at 68 nM (input ligand: FMN 200 uM), 45.1 nM under setting [1] and 62.4 nM (input ligand: none).

Take “GCUACCAUUGAAGCCUACAUGAGGAUCACCCAUGUAUGUAGGCAGGAUAUCGAUUGCUUUGCGAUCGAGAAGGGCUUAGGUAGC [JL SSNG3 1.30] (Eterna round: R96, puzzle: Same State NG 3)”: the “apparent KD of MS2 coat protein” value by setting is: (input ligand: FMN 200 uM) 21.6 nM; under setting [1], 47.5 nM; (input ligand: none) 60.8 nM.

Take “UUAUCCUUUUUUUACAUGAGGAUCACCCAUGUUUUUCUUACGUAGGAUAUCGUUGUUUUUUUUUACGAGAAGGACGUAGUAAGA [JR_SSND3_Sub061] (Eterna round: R96, puzzle: Same State NG 3)”: the “apparent KD of MS2 coat protein” value was 41.3 nM (input ligand: FMN 200 uM), 31.9 nM under setting [1] and 37.1 nM (input ligand: none).

Take “AAUUAAGAUCAAGGAUAUCACGUCGUUUAGACGUGAGAAGGUGAUCAUAACAUGAGGAUCACCCAUGUAUUACAUGAAUUAAUU [SSNG1/2-B3] (Eterna round: R96, puzzle: Same State NG 1)”: the “apparent KD of MS2 coat protein” value runs as follows: (input ligand: FMN 200 uM) 72.4 nM; under setting [1], 404 nM; (input ligand: none) 370 nM.

On to “UAAACUUCUUUUAGUGUAAUGCAAGUGAUACAUGAGGAUCACCCAUGUUUUGGAUCGUGUUAUUUUGUUCGUCUUAA [JR_SHM208A_Sub077] (puzzle: Sensor for hsa-mir-208a)”, for which the “apparent KD of MS2 coat protein” value reads like this: under setting [2], 33.2 nM; under setting [3], 30.3 nM; under setting [4], 42.9 nM.

Regarding “AAGAGACAUGAGGAUCACCCAUGUUUGAAUAAUAUAGGAUAUAUACCACAUGUAAAAGAAAUAGAAGGAUAAGAAA [Default title] (puzzle: Same State 1)”, the “apparent KD of MS2 coat protein” value came to 77 nM under setting [2], 114 nM under setting [3] and 534 nM under setting [4].

Regarding “GGAGCCUGCACUGAGGAUAUUCAUAGUGUAACAUGAGGAUCACCCAUGUAGGCCCUGAGGCCUUGGGAGAAGGCAGUGCGGCUCG [JL-ss2-3.05 ViennaUCT mod] (puzzle: Same State 2)”, the “apparent KD of MS2 coat protein” value was 27.9 nM under setting [2], 355 nM under setting [3] and 447 nM under setting [4].
